Results published in patent US20060234944A1, “Beta-secretase inhibitors and methods of use” (Oklahoma Medical Reseach Foundation, priority 2001, published 2006).
Where no end group is shown, it is not given here. [ ]: non-standard residue; d: D form. FAM = 5-(and 6-)carboxyfluorescein; Ahx = NCCCCCC(=O)O

Target: memapsin 2 (spontaneously activated promemapsin 2-T1; amino acids 43-456 and 45-456 of SEQ ID NO: 8) (human) (UniProt P56817)
Experiment: kinetic inhibition experiment (procedure of Ermolieff et al.)

Chain of memapsin 2 (spontaneously activated promemapsin 2-T1; amino acids 43-456 and 45-456 of SEQ ID NO: 8) (human) (P56817 41-454): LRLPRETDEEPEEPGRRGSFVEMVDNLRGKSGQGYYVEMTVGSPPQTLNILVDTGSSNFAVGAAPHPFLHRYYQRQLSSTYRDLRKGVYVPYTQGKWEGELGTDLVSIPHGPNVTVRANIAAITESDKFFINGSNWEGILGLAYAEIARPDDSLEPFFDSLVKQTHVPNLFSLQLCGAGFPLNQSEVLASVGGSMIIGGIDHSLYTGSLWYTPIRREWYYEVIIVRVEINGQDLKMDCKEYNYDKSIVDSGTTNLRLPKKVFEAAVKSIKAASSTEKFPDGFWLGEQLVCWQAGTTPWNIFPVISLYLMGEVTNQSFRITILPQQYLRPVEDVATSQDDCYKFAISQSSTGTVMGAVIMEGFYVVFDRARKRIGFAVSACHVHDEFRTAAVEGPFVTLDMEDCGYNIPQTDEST

Ki | Ki apparent | Binder
35 nM | – | ELDLAVEFGG[dR][dR][dR][dR][dR][dR][dR][dR][dR] (also: hydroxyethylene isostere between Leu4 and Ala5) [CPI-3: (ELDL*AVEF)-GG-(…)]
– | 58 nM | {FAM-Ahx}-ELDLAVEFGG[dR][dR][dR][dR][dR][dR][dR][dR][dR] (numbers in words are those of the source; also: hydroxyethylene isostere between Leu5 and Ala6) [CPI-2: FAM-Ahx-(ELDL*AVEF)-GG-(…)]
